Source: patent US20250326792A1, “A FORMULATION FOR TREATMENT OF PIGMENTARY DISORDERS” (priority 2022, published 2025)
PHPP = 3-Phenylpyrazolo[3,4-d]pyrimidine (N-terminal cap)

Experiments:
[1] = Stability of IS103 API, accelerated (Condition 1, 5±3° C.); assay type: physicochemical
Experimental: The purpose of stability testing is to provide evidence on how the quality of a drug substance or drug product varies with time under the influence of a variety of environmental factors such as temperature, humidity, etc. and to establish a re-test period for the drug substance or a shelf life for the drug product and recommended storage conditions. The study was conducted according to the WHO and schedule-Y guidelines.
The IS103 API is a lyophilized white fluffy powder, and it was filled at sterile condition in glass injection vial which has airlock-rubber capping. This container closure system is same as or simulates the packaging proposed for storage and distribution.
The following test attributes have been selected according to the above said guidelines: • appearance; odour; colour; colour of solution (when IS103 API is soluble in solvent); clarity of solution; degradation and assessment of container closure system.
The studies were conducted under appropriate storage conditions (with appropriate tolerances) that test IS103 API thermal stability and its sensitivity to moisture. The IS103 API is intended for storage for 36 months. Accordingly, long term stability studies were done for 36 months. The details of the storage conditions have been furnished hereunder.

Tyrosinase = Tyrosinase activity assay (L-DOPA) in B16F10 cells; assay type: cell-based; details: for % increase in tyrosinase activity compared to control / Change in tyrosinase activity: TYROSINASE ACTIVITY table
Experimental: Culture and maintenance of cell lines: B16F10 cells were cultured in RPMI containing 10% fetal bovine serum, 100 units per millilitre (U/mL) penicillin, 0.1 mg/mL streptomycin, and 0.25 microgram per millilitre (μg/mL) amphotericin B at 37 degrees Celsius in a humidified 95% air/5% CO2 incubator. Drug treatment was done 24 hours after seeding. Cells were harvested 48 hours later and melanin content and tyrosinase activity determined in triplicate. NHEM cells were cultured in DMEM containing 10% fetal bovine serum, 100 units per milliliter (U/mL) penicillin, 0.1 mg/mL streptomycin, and 0.25 microgram per millilitre (μg/mL) amphotericin B at 37 degrees Celsius in a humidified 95% air/5% CO2 incubator. Drug treatment was done 24 hours after seeding. Cells were harvested 48 hours later and melanin content and tyrosinase activity determined in triplicate.
IS103 was dissolved in water for injection or DMSO to prepare stock solution of about 50 mg/ml. The stock solution was used for preparation of subsequent dilutions in solvent to achieve working dilutions for treatment ranging 0.1 μg/ml to 1000 μg/ml.
Tyrosinase activity was determined using L-DOPA as a substrate. Briefly, B16F10 and NHEM cells were seeded in a 6-well plate (2×10^4 cells/well) and incubated for overnight. The cells were then treated with or without the test compounds for 46 hours and were washed twice with ice cold PBS and extracted by sonication in 100 μl of 0.1M Tris-HCl buffer (pH 7.2) containing 1% Nonidet P-40, 0.01% SDS, 100 μM phenyl methyl sulfonyl fluoride, and 1 μg/ml aprotinin and then centrifuged at 10,000 g for about 10 minutes at 4° C. The supernatants collected were used for enzyme assay and its protein content was estimated by method of Bradford using BSA as standard. Samples of cell extract supernatant were incubated in duplicate for 1 hour at 37° C. in 1 ml of 0.1M sodium phosphate buffer (pH 7.4) containing 0.1% L-DOPA. The absorbance was then monitored at 450 nm and compared with purified mushroom tyrosinase (Sigma). The standard curve was prepared limiting linearity within the range of experimental value.

PHPP-Tyr-Arg-Ser-Arg-Lys-Tyr-Ser-Ser-Trp-Tyr-NH2 ({PHPP}-YRSRKYSSWY-NH2) [IS103]
API calculated on the anhydrous basis ([1]; 5±3° C., 1 M): 99.68%
Appearance white to off white amorphous powder ([1]; 5±3° C., 1 M): White
Related substances (By HPLC) Any Max Impurity ([1]; 5±3° C., 1 M): 0.35%
Related substances (By HPLC) Total Impurity ([1]; 5±3° C., 1 M): 2.23%
Solubility Sparingly soluble in water ([1]; 5±3° C., 1 M): Complies
Water Content (By Karl Fischer-Titrator) ([1]; 5±3° C., 1 M): 4.27% w/w
Internal change in attributes: Appearance ([1]; 5±3° C., 1st month): No change
Internal change in attributes: Clarity of solution ([1]; 5±3° C., 1st month): No change
Internal change in attributes: Color ([1]; 5±3° C., 1st month): No change
Internal change in attributes: Color of solution ([1]; 5±3° C., 1st month): No change
Internal change in attributes: Odor ([1]; 5±3° C., 1st month): No change
Internal change in attributes: Appearance ([1]; 5±3° C., 2nd month): No change
Internal change in attributes: Clarity of solution ([1]; 5±3° C., 2nd month): No change
Internal change in attributes: Color ([1]; 5±3° C., 2nd month): No change
Internal change in attributes: Color of solution ([1]; 5±3° C., 2nd month): No change
Internal change in attributes: Odor ([1]; 5±3° C., 2nd month): No change
API calculated on the anhydrous basis ([1]; 5±3° C., 3 M): 99.14%
Appearance white to off white amorphous powder ([1]; 5±3° C., 3 M): White
Related substances (By HPLC) Any Max Impurity ([1]; 5±3° C., 3 M): 0.40%
Related substances (By HPLC) Total Impurity ([1]; 5±3° C., 3 M): 2.30%
Solubility Sparingly soluble in water ([1]; 5±3° C., 3 M): Complies
Water Content (By Karl Fischer-Titrator) ([1]; 5±3° C., 3 M): 4.29% w/w
Internal change in attributes: Appearance ([1]; 5±3° C., 3rd month): No change
Internal change in attributes: Clarity of solution ([1]; 5±3° C., 3rd month): No change
Internal change in attributes: Color ([1]; 5±3° C., 3rd month): No change
Internal change in attributes: Color of solution ([1]; 5±3° C., 3rd month): No change
Internal change in attributes: Odor ([1]; 5±3° C., 3rd month): No change
API calculated on the anhydrous basis ([1]; 5±3° C., 6 M): 99.00%
Appearance white to off white amorphous powder ([1]; 5±3° C., 6 M): White
Related substances (By HPLC) Any Max Impurity ([1]; 5±3° C., 6 M): 0.49%
Related substances (By HPLC) Total Impurity ([1]; 5±3° C., 6 M): 2.44%
Solubility Sparingly soluble in water ([1]; 5±3° C., 6 M): Complies
Water Content (By Karl Fischer-Titrator) ([1]; 5±3° C., 6 M): 4.87% w/w
Internal change in attributes: Appearance ([1]; 5±3° C., 6th month): No change
Internal change in attributes: Clarity of solution ([1]; 5±3° C., 6th month): No change
Internal change in attributes: Color ([1]; 5±3° C., 6th month): No change
Internal change in attributes: Color of solution ([1]; 5±3° C., 6th month): No change
Internal change in attributes: Odor ([1]; 5±3° C., 6th month): No change
API calculated on the anhydrous basis ([1]; 5±3° C., Initial): 99.73%
Appearance white to off white amorphous powder ([1]; 5±3° C., Initial): White
Related substances (By HPLC) Any Max Impurity ([1]; 5±3° C., Initial): 0.39%
Related substances (By HPLC) Total Impurity ([1]; 5±3° C., Initial): 2.09%
Solubility Sparingly soluble in water ([1]; 5±3° C., Initial): Complies
Water Content (By Karl Fischer-Titrator) ([1]; 5±3° C., Initial): 4.18% w/w
found to be stable for ([1]; accelerated condition, 5±3° C.): 6 months
stable for ([1]; refrigerator (5±3° C.) conditions): 36 months
increase in Tyrosinase activity when compared to control (Tyrosinase; B16F10 CELLS, 250 μg/mL): 55.33%
effect on tyrosinase activity (FIG. 6) (Tyrosinase; B16F10 cells, different concentrations, about 48 hours): increased tyrosinase activity
% increase in tyrosinase activity compared to control (Tyrosinase; B16F10 CELLS, 0.1 μg/mL): 0%
Change in tyrosinase activity (Tyrosinase; B16F10 CELLS, 0.1 μg/mL): 15.0 ± 1.60
% increase in tyrosinase activity compared to control (Tyrosinase; B16F10 CELLS, 1 μg/mL): 3%
Change in tyrosinase activity (Tyrosinase; B16F10 CELLS, 1 μg/mL): 18.0 ± 2.20
% increase in tyrosinase activity compared to control (Tyrosinase; B16F10 CELLS, 10 μg/mL): 10.33%
Change in tyrosinase activity (Tyrosinase; B16F10 CELLS, 10 μg/mL): 25.3 ± 1.20
% increase in tyrosinase activity compared to control (Tyrosinase; B16F10 CELLS, 50 μg/mL): 24%
Change in tyrosinase activity (Tyrosinase; B16F10 CELLS, 50 μg/mL): 39.0 ± 2.20
% increase in tyrosinase activity compared to control (Tyrosinase; B16F10 CELLS, 100 μg/mL): 42.33%
Change in tyrosinase activity (Tyrosinase; B16F10 CELLS, 100 μg/mL): 57.3 ± 4.20
% increase in tyrosinase activity compared to control (Tyrosinase; B16F10 CELLS, 250 μg/mL): 55.33%
Change in tyrosinase activity (Tyrosinase; B16F10 CELLS, 250 μg/mL): 70.3 ± 1.70
% increase in tyrosinase activity compared to control (Tyrosinase; B16F10 CELLS, 500 μg/mL): 62%
Change in tyrosinase activity (Tyrosinase; B16F10 CELLS, 500 μg/mL): 77.0 ± 3.00
% increase in tyrosinase activity compared to control (Tyrosinase; B16F10 CELLS, 1000 μg/mL): 60.33%
Change in tyrosinase activity (Tyrosinase; B16F10 CELLS, 1000 μg/mL): 75.3 ± 2.50
